Experimental data: paper PMC10511788, “Solution structure of the HOIL-1L NZF domain reveals a conformational switch regulating linear ubiquitin affinity” (The Journal of Biological Chemistry, 2023)

Target: T1, M1-linked di-ubiquitin (UniProt P0CG48 1-76; P0CG48 1-76)
T1 construct: ubiquitin, distal (N-terminal) moiety, M1-G76, its G76 joined by a peptide bond to M1 of the next moiety; ubiquitin, proximal (C-terminal) moiety, M1-G76, with the free C-terminal carboxylate; Two ubiquitin units head to tail on one chain; also called linear di-Ub; linear (head-to-tail) di-Ub
Experiment: ITC; 298 K, MicroCal iTC200; linear di-Ub (1 mM) in the syringe, HOIL-1L NZF (100 uM) in the cell (several experiments at half of these); 20 mM HEPES pH 7.0, 50 mM sodium chloride, 1 mM TCEP; one set of sites model; three independent experiments
Settings: both partners purified

Kd: 10.3 µM
B1: mouse HOIL-1L NZF domain (residues Pro192-Gln250) T207D (domain or fragment)
chain: GPLGSPEPVGWQCPGCTFINKPDRPGCEMCCRARPETYQIPASYQPDEEERARLAGEEEALRQYQQ
notes: HOIL-1L, mouse, NZF domain with tail, residues Pro192-Gln250, point mutant T207D; Point mutation made by PCR on the plasmid of m1; also called phosphomimetic HOIL-1L NZF; T207D HOIL-1L NZF; source: E. coli, autoinduction in N-5052 media, purified; not shown: GST, N-terminal, cleaved
